Test results published in article PMC8102066, “Differences in interactions between transmembrane domains tune the activation of metabotropic glutamate receptors” (eLife, 2021).

Biological target: the molecule itself
Experiment: single-molecule pulldown (SiMPull) with photobleaching step counting; HEK 293T cells surface-labelled with BG-LD555, lysed in 1.2% IGEPAL, diluted in 0.1% IGEPAL buffer; HA-SNAP constructs captured by biotinylated anti-HA antibody on NeutrAvidin/PEG slides; TIRF; percent dimerization = two-step bleaching min-max normalised (5% background, 55% for full-length mGluR2); in some experiments saturating ligands (TASP, MNI …)

B1: HA-SNAP-mGluR3-C127A (receptor, rat, UniProt P31422 23-879, looked up)
chain: LGDHNFMRREIKIEGDLVLGGLFPINEKGTGTEECGRINEDRGIQRLEAMLFAIDEINKDNYLLPGVKLGVHILDTCSRDTYALEQSLEFVRASLTKVDEAEYMAPDGSYAIQENIPLLIAGVIGGSYSSVSIQVANLLRLFQIPQISYASTSAKLSDKSRYDYFARTVPPDFYQAKAMAEILRFFNWTYVSTVASEGDYGETGIEAFEQEARLRNICIATAEKVGRSNIRKSYDSVIRELLQKPNARVVVLFMRSDDSRELIAAANRVNASFTWVASDGWGAQESIVKGSEHVAYGAITLELASHPVRQFDRYFQSLNPYNNHRNPWFRDFWEQKFQCSLQNKRNHRQVCDKHLAIDSSNYEQESKIMFVVNAVYAMAHALHKMQRTLCPNTTKLCDAMKILDGKKLYKEYLLKINFTAPFNPNKGADSIVKFDTFGDGMGRYNVFNLQQTGGKYSYLKVGHWAETLSLDVDSIHWSRNSVPTSQCSDPCAPNEMKNMQPGDVCCWICIPCEPYEYLVDEFTCMDCGPGQWPTADLSGCYNLPEDYIKWEDAWAIGPVTIACLGFLCTCIVITVFIKHNNTPLVKASGRELCYILLFGVSLSYCMTFFFIAKPSPVICALRRLGLGTSFAICYSALLTKTNCIARIFDGVKNGAQRPKFISPSSQVFICLGLILVQIVMVSVWLILETPGTRRYTLPEKRETVILKCNVKDSSMLISLTYDVVLVILCTVYAFKTRKCPENFNEAKFIGFTMYTTCIIWLAFLPIFYVTSSDYRVQTTTMCISVSLSGFVVLGCLFAPKVHIVLFQPQKNVVTHRLHLNRFSVSGTATTYSQSSASTYVPTVCNGREVLDSTTSSL
modifications: SNAP tag labelled with BG-LD555 (BG-LD655 in two-colour SiMPull)
notes: mGluR3, full-length receptor with the intersubunit disulfide cysteine of the LBD mutated; source: HEK 293T, transfected, in lysate; not shown: HA, N-terminal, kept; SNAP, N-terminal, kept
- fold reduction in dimerization against SNAP-mGluR3: 2 fold
